# Where two headings read alike, the source gives them in different places.
# T1: VSTM5 monomer (UniProt A8MXK1 29-147, limits assumed)
# T1 construct: also called monomeric VSTM5 antigen; VSTM5 antigen
# T1 sequence (looked up): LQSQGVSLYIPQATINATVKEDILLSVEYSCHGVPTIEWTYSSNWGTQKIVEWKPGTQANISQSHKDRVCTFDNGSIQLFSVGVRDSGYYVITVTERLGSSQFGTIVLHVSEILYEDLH
# T2: mouse VSTM5 (SEQ ID NO:11) expressed on HEK-293T cells (mouse, UniProt Q9D806 28-199)
# T2 construct: also called mouse VSTM5 untagged
# T2 sequence: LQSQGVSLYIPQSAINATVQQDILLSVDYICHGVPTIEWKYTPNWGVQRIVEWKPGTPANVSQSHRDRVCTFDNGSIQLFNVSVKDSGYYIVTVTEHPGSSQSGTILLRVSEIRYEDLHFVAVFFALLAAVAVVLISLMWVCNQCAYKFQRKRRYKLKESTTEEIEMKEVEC
# B1: 47-01.D05 (antibody, V domains shown)
# VH: QITLKESGPTLVKPTQTLTLTCTFSGFSLSTSGVGVGWIRQPPGKALEWLALIYWDDDKRYSPSLKSRLTITKDTSKNQVVLTMTNMDPVDTATYYCAHSGSVGYALYFDYWGQGTLVTVSS
# VL: QAVLTQPPSSSASPGESARLTCTLPSDINVRYYNIYWYQQKPGSPPRYLLYYQSDSHKGRGSGVPSRFSGSKDTSANTGILLISGLQSEDEADYYCMIWASNGSGVLGGGTQLTVLG
# B2: 49-02.C11 (antibody, V domains shown)
# VH: EVQLVESGGGLVQPGGSLRLSCAASGFTFSSYAMTWVRQAPGKGLEWVSVISGGGGTTYYADSVKGRFTISRDNSKNTLYLQMSSLRAEDTAVYYCAKGYSSGWPYYFDYWGQGTLVTVSS
# VL: EIVLTQSPGTLSLSPGERATLSCRASQSGVTNFLAWYQQKPGQAPRLLIYATSSRATGIPDRFSGSASGTDFTLTITRLEPEDFAVYFCQQYASSPLTFGGGTKVEIKR
# notes: also called 49-02.011
# B3: 50-01.F03 (antibody, V domains shown)
# VH: EVQLVEIGGGLIQPGRSLRLSCAASGFTFSSYAMHWVRQAPGKGLEWVAVISYDGSKKYYADSVKGRFTISRDNSKNTVHLQMNSLRVEDTAVYYCALLSRPHYGLDVWGQGTTVTVSS
# VL: QSVLTQPPSVSAAPGQKVTISCSGSRSNVGGNFLSWYQHVPGTPPQLLIYDNYKRPSEIPDRFSGSKSGTSATLDITGLQTGDEADYYCGTWDSSLSSWVFGGGTQLTVLG
# B4: 49-01.F01 (antibody, V domains shown)
# VH: EVQLVESGGGVVKPGESLRLLCTASGLSFNKYSINWVRQAPGGGLEWVSSIESGSGHIYYADSLEGRFTISRDNAKNSVTLEMNSLRVEDTALYYCVSGPEDKWLLQLYFESWGQGTLVTVSS
# VL: EIVLTQSPATLSLSPGERATLSCRTSQSSPSDNLAWYQHKPGQAPRLLIYGGSNRATGIPARFSGSGSGTDFTLTISSLEPEDFAVYYCQQYGSSPLTFGGGTKVDIKR
# B5: 49-01.F05 (antibody, V domains shown)
# VH: QVQLQQWGAGLLKPSETLSLTCAVYGGSFSGYYWSWIRQPPGKGLEWIGEINHSGSTNYNPSLKSRVTISVDTSKNQFSLKLSSVTAADTAVYYCARGWRGGSFMDVWGQGTTVTVSS
# VL: QSALTQPRSVSGSPGQSVTISCTGTSSDVGGYNYVSWYQQHPGKAPKLMIYDVIKRPSGVPDRFSGSRSGNTASLTISGLQAEDEADYYCCSYAGTHWVFGGGTKLTVLG
# B6: 52-01.A07 (antibody, V domains shown)
# VH: EVQLVESGGGLVQPGRSLRLSCAASGFTFSSYAMHWVRQAPGKGLEWVAVISYDGSNKYYADSVKGRFTISRDNSKNTLYLQMNSLRAEDTAVYYCASKRELHSFDYWGQGTLVTVSS
# VL: DVVMTQSPLSLPVTPGEPASISCRSSQSLLQSNGHNYLNWYLQKPGQSPQVLIYLASNRASGVPDRFSGSGSGTDFTLKISRVEAEDVGIYYCMQGLQIPLTFGGGTKVEIKR
# B7: 49-01.D06 (antibody, V domains shown)
# VH: QVQLVQSGAEVKKPGTSVKVSCKASGYTFTTYTMHWVRQAPGQRLEWMGWINTGNGNTKYSQKFQDRVTITRDTSASTAYMELSSLKFEDTAVYYCAREGVTIFGDHSYYYGMDVWGQGTTVTVSS
# VL: QPVLTQSSSASASLGSSVKLTCTLSSGHSSYIIAWHQQQPGKAPRYLMKLEGSGSYNKGSGLPDRFSGSSSGADRYLTISNLQSEDEADYYCETWDGNTWVFGGGTQLTVLG
# B8: 50-01.D01 (antibody, V domains shown)
# VH: QVQLVESGGGVVQPGRSRRLSCAASGFAFRNYGMHWVRQAPGKGLEWVAFISQNGGKKYYADSVTGRFTVSRDNSKNTLYLQINSLTTDDTAVFYCARSGSGSWGYSDFPGPFDHWGQGSLVTVSS
# VL: EIVLTQSPGTLSLSPGERATLSCRASQNIFISFLAWYQQKPGQAPRLLLYGASNRATGIPDRFSGSGSGTDFTLTISRLEPEDFAVYYCQQYGSSPLTFGGGTKVEIKR
# notes: also called 50-01.001
# B9: 50-01.A04 (antibody, V domains shown)
# VH: QVQLVQSGAEVKKPGESLKISCKGSGYDFNNYWIGWVRQTPEKGLEWMGIVYPGDHPGDYHIRYGPSFQGQVTISADRSITTAYLQWRNLKASDTAMYYCARLGSSKDLDYWGQGTLVTVSS
# VL: EIVLTQSPATLSLSPGERATLSCRASQSVSGHLDWYQQKPGQSPRLLIYDASNRATGIPARFSGSGSGTDFSLTISSLEPEDFAVYYCQHRSNWPWTFGQGTKVEIKR
# B10: 50-01.E02 (antibody, V domains shown)
# VH: QVQLVESGGGVVQPGGSLKLSCVASGFTFSAYAMNWVRLVPGKGLEWVSGISGNGYSTFYPDSVQGRFTVSRDNSKNTLFLQIDRLTGGDTAIYYCAKVQTTVITPFQNWGQGTLVTVSS
# VL: EIVLTQSPGTLSLSPGERATLSCRASQNIGSNFLAWYQQKPGQAPRLLIYGASTRANGIPDRFSGSKSETDFTLTISRLEPEDFAVYYCQQYDNSPYTFGQGTKLEIKR
# Assays:
# [1] = molecular target: T3, human VSTM5-EGFP (SEQ ID NO:133) expressed on HEK-293 cells (human); test: FACS titration of the human IgG1 on 293-huVSTM5 cells, 293-MT control cells as open squares; y axis MFI (anti-Human A647)
# T3 construct: Full-length human VSTM5 fused at its C-terminus to EGFP; also called VSTM5_GFP
# VSTM5 monomer [2] = molecular target: T1, VSTM5 monomer; test: SPR, VSTM5 monomer binding to the IgG (equilibrium binding constant)
# VSTM5 monomer [3] = molecular target: T1, VSTM5 monomer; test: SPR, VSTM5 monomer binding to the IgG
# [4] = molecular target: T2, mouse VSTM5 (SEQ ID NO:11) expressed on …; test: FACS titration on 293-muVSTM5 cells, panel 'Ab binding vs. mouse VSTM5'
# [5] = molecular target: T3, human VSTM5-EGFP (SEQ ID NO:133) …; test: FACS, IgG1 at 22 nM on 293-huVSTM5 (VSTM5-EGFP) cells; grade from ratio to 293-MT control cells (400-850)
# Method: Empty vector control cells and human VSTM5 EGFP suspension 293 cells were pelleted and stained in 50 μl of the indicated concentrations of anti-VSTM5 antibodies or isotype controls in FACS buffer at 4° C. for 60 mins. Cells were washed once in FACS buffer, re-suspended in 50 μl of 1:250 dilution of biotinylated anti-human IgG (Jackson cat#109-065-097) for 30 mins at 4° C. Cells were washed in FACS buffer, re-suspended in 50 μl of 1:100 dilution of SA-PE (Jackson cat#016-110-084) for 30 mins. Cells were washed twice and re-suspended in a final volume of 100 μl of FACS buffer. Samples were read on the Intellicyt HTFC. Data was analyzed by FCS Express (DeNovo, Calif., USA), exported to Excel (Microsoft, WA, USA) and plotted in GraphPad Prism® (GraphPad Software, Inc., CA, USA).
# [6] = molecular target: T3, human VSTM5-EGFP (SEQ ID NO:133) …; test: FACS, IgG1 at 22 nM on 293-huVSTM5 (VSTM5-EGFP) cells; grade from ratio to 293-MT control cells (850-2000)
# [7] = molecular target: T3, human VSTM5-EGFP (SEQ ID NO:133) …; test: FACS, IgG1 at 22 nM on 293-huVSTM5 (VSTM5-EGFP) cells; grade from ratio to 293-MT control cells (>2000)
# [8] = molecular target: T3, human VSTM5-EGFP (SEQ ID NO:133) …; test: FACS titration of the human IgG1 on 293-huVSTM5 cells, 293-MT control cells as open squares; y axis MFI (anti-Human A647); remark: listed apart in the source
# [9] = molecular target: T3, human VSTM5-EGFP (SEQ ID NO:133) …; test: FACS, IgG1 at 22 nM on 293-huVSTM5 (VSTM5-EGFP) cells; grade from ratio to 293-MT control cells (<50)
# [10] = molecular target: T3, human VSTM5-EGFP (SEQ ID NO:133) …; test: FACS, IgG1 at 22 nM on 293-huVSTM5 (VSTM5-EGFP) cells; grade from ratio to 293-MT control cells (50-400)
Binder,Kd (VSTM5 monomer [2]) [nM],Kd (VSTM5 monomer [3]) [nM],binding result [4],ratio of 293-huVSTM5 cell binding / 293-MT control cell binding (FACS) at 22 nM mAb [5] [ratio],ratio of 293-huVSTM5 cell binding / 293-MT control cell binding (FACS) at 22 nM mAb [7] [ratio],EC50 (read off the curve) [8] [nM],further results
B1,60.7,60.7,no binding,400 to 850,–,–,EC50 (read off the curve) [1]: ~2 nM
B2,–,–,no binding,–,–,–,ratio of 293-huVSTM5 cell binding / 293-MT control cell binding (FACS) at 22 nM mAb [6]: 850 to 2000 ratio
B3,–,–,no binding,400 to 850,–,–,EC50 (read off the curve) [1]: ~0.7 nM
B4,2,2,no binding,–,> 2000,~1,–
B5,190,190,no binding,–,> 2000,–,–
B6,–,–,no binding,–,–,–,ratio of 293-huVSTM5 cell binding / 293-MT control cell binding (FACS) at 22 nM mAb [9]: < 50 ratio
B7,–,–,no binding,–,> 2000,–,–
B8,–,–,no binding,400 to 850,–,~0.6,–
B9,52.8,52.8,no binding,–,–,–,ratio of 293-huVSTM5 cell binding / 293-MT control cell binding (FACS) at 22 nM mAb [10]: 50 to 400 ratio
B10,–,–,no binding,–,–,~1,ratio of 293-huVSTM5 cell binding / 293-MT control cell binding (FACS) at 22 nM mAb [6]: 850 to 2000 ratio
